Tested on: MS2 coat protein
Assay: apparent KD of MS2 coat protein; designed switch direction (-1 OFF switch, 1 ON switch): -1; higher = weaker reporter binding
In short: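 Three titration conditions were used: no input, 200 uM small-molecule ligand, and an oligonucleotide input. In each, SNAP-549-labelled MS2 coat protein was raised from 0.7 or 1.5 nM, doubling, to 3 µM over designed RNA switches transcribed on Illumina chips by stalled E. coli RNA polymerase. Curve fits of normalised cluster fluorescence gave values whose per-design median over clusters is the apparent KD.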

[1] = Eterna round: R95, input ligand: FMN 200 uM
[2] = Eterna round: R95, input ligand: microRNA oligo, concentration not stated
[3] = Eterna round: R95, input ligand: none
[4] = input ligand: microRNA oligo, concentration not stated

Sequence: GAGAAGGUAGGAUAUACGAAUAAAUAGGGUAGUAAUAAUACACAUGAGGAUCACCCAUGUAGAAGGACCAAGAG [Mat - Exclusion 2 - Mod of my Tesla design - D39] (puzzle: Exclusion 2)
- apparent KD of MS2 coat protein [1]: 38.1 nM
- apparent KD of MS2 coat protein [2]: 22.8 nM
- apparent KD of MS2 coat protein [3]: 25 nM

Sequence: GUAGAGUAAGGAUAUGGUGAAUAGGAUAGAAUGGUUAGAAAUCAGAAGGUACAUGAGGAUCACCCAUGUAAUGU [Excluse me!!!! 15 - Jieux - Exclusion 4] (puzzle: Exclusion 4)
- apparent KD of MS2 coat protein [2]: 21 nM

Sequence: UUGGUUGUGGUAGGAUAUCCGUUGGAAACUGUUGGAGAAGGACCACAGUCACUGGGUCCUUCUUUGGUGGAGUGGAAGAACCAU [pwkr exNG1 F6.17] (Eterna round: R96, puzzle: Exclusion NG 1)
- apparent KD of MS2 coat protein (input ligand: FMN 200 uM): 131 nM
- apparent KD of MS2 coat protein [4]: 192 nM
- apparent KD of MS2 coat protein (input ligand: none): 167 nM

Sequence: GUCGUGCGGCUUUGCUGUGCGGGUACAUGAGGAUCACCCAUGUAGGAUAUGGUACGCUUUGCGUGCCAGAAGGGCGUGCGUUGG [salish99_ExNG3_r04_008] (Eterna round: R96, puzzle: Exclusion NG 3)
- apparent KD of MS2 coat protein (input ligand: FMN 200 uM): 38.4 nM
- apparent KD of MS2 coat protein [4]: 26.3 nM
- apparent KD of MS2 coat protein (input ligand: none): 36.6 nM

Sequence: GCAUCCAUAGUGAGGAUAUACCUCUGGAUACAUAGGUAGAAGGCACAUGAGGAUCACCCAUGUUCUUAGGAUGC [Fiskers BMX 4 - 34] (puzzle: Brourd's mod of Exclusion 4)
- apparent KD of MS2 coat protein [2]: 23.9 nM

Sequence: GAUUAUGCGAGCUUUAGGGACAUGAGGAUCACCCAUGUUCGUCUUAUUAAUCUAGGUGCGCUAACAUACCUAAAUCU [JMF 47] (puzzle: Sensor v3, turn-off variant 1)
- apparent KD of MS2 coat protein [1]: 21.5 nM
- apparent KD of MS2 coat protein [2]: 32 nM
- apparent KD of MS2 coat protein [3]: 23.7 nM

Sequence: GCUAGAGCAGGAUAUUUAGAUCCUCACAUGAGGAUCACCCAUGUGGUCGAAAGACUAAGAAGAGAAGGGCUCUAGC [Omei Ex5 E21] (Eterna round: R97, puzzle: Exclusion 5)
- apparent KD of MS2 coat protein (input ligand: FMN 200 uM): 326 nM
- apparent KD of MS2 coat protein (input ligand: none): 944 nM

Sequence: AGUAACCGUCACGAAAGUGAUGGUUACACAAGCAUAUGUACAUGAGGAUCACCCAUGUCCUCAACUGCUCGUCUUAU [Sensor 3 - 55] (puzzle: Sensor v3, turn-off variant 2)
- apparent KD of MS2 coat protein [1]: 296 nM
- apparent KD of MS2 coat protein [2]: 385 nM
- apparent KD of MS2 coat protein [3]: 424 nM

Sequence: AAAUUAGCAAGUAGGUCCGACAUGAGGAUCACCCAUGUUAUCUGAAAUAACGCUGCAUGAAAGUGCGCUCGUCUUAG [Sensor-V1 #9] (Eterna round: R97, puzzle: Sensor, turn-off variant 1)
- apparent KD of MS2 coat protein (input ligand: FMN 200 uM): 65.3 nM
- apparent KD of MS2 coat protein (input ligand: none): 73.9 nM

Sequence: AUGGAAGAGCAAUAGCUCUACAUGAGGAUCACCCAUGUAGGAAAUACUGGGUACAGCGGGCUUUUUGCUCGGCUUAU [Alacar Attempt 4] (Eterna round: R97, puzzle: Sensor, turn-off variant 1)
- apparent KD of MS2 coat protein (input ligand: FMN 200 uM): 364 nM
- apparent KD of MS2 coat protein (input ligand: none): 412 nM

Sequence: UAUUAGCAAGCAAGAUCCCACAUGAGGAUCACCCAUGUGCUCGUCUUAUAAGGUACUGUGACGAAAGUCACGGUACC [Sensor 3, v1 - 83] (puzzle: Sensor v3, turn-off variant 1)
- apparent KD of MS2 coat protein [1]: 36.8 nM
- apparent KD of MS2 coat protein [2]: 1080 nM
- apparent KD of MS2 coat protein [3]: 38 nM

Sequence: GUUACACAUGAGGAUCACCCAUGUAAGGAUAUGCUGCGGUCGCGAAAACGUGACUGCAGCAGAAGGUACACAUG [Mat - Mod of JL D61] (puzzle: Exclusion 1)
- apparent KD of MS2 coat protein [2]: 135 nM

Sequence: GCCCGGGCAGGAUAUACAAUGAGCUUGAGAAAUCGAGUUCGACAUGAGGAUCACCCAUGUAGAAGGGCCCGGGC [-37.4, -35.1 kcal, A 28% 1] (Eterna round: R97, puzzle: Exclusion 2)
- apparent KD of MS2 coat protein (input ligand: FMN 200 uM): 24.5 nM
- apparent KD of MS2 coat protein (input ligand: none): 14.9 nM

Sequence: GCCAGAGCAGGAUAUUCAAUAAUCCACAUGAGGAUCACCCAUGUCCAGCGAAAGCUGGAGGGAGAAGGGCUCUGGC [Fiskers Ex 5 - 7] (puzzle: Exclusion 5)
- apparent KD of MS2 coat protein [2]: 73.4 nM

Sequence: UAACAAGCUUAAAGAUCCCACAUGAGGAUCACCCAUGUGCUCGUCUUAUAACGUACUGUGACGAAAGUCACGGUACG [JL TOV1 3.13] (Eterna round: R97, puzzle: Sensor, turn-off variant 1)
- apparent KD of MS2 coat protein (input ligand: FMN 200 uM): 29.2 nM
- apparent KD of MS2 coat protein (input ligand: none): 26.3 nM

Sequence: UGCAGACGAGGAUAUAAAUUUGAUAACAUGAGGAUCACCCAUGUGAUCGAUAGAUCAAAUUUAGAAGGCGUCUGCU [E5/7-A3] (Eterna round: R97, puzzle: Exclusion 5)
- apparent KD of MS2 coat protein (input ligand: FMN 200 uM): 541 nM
- apparent KD of MS2 coat protein (input ligand: none): 519 nM

Sequence: AGUCGUAAACAAGUUUCUGACAUGAGGAUCACCCAUGUGAGACUAAAAGUAUCAGAUUGCCUAAUAAGUAGCUCGUC [Eternabot (L2) Solution 29] (Eterna round: R97, puzzle: Sensor, turn-off variant 1)
- apparent KD of MS2 coat protein (input ligand: FMN 200 uM): 20.6 nM
- apparent KD of MS2 coat protein (input ligand: none): 23.5 nM

Sequence: AAAUAGCAUGAGGAUAUUGGACUGGAUUCAGUGCGAGAAGGCAUGACAUGAGGAUCACCCAUGUUGUGUUGGGA [EX6 #9] (Eterna round: R97, puzzle: Exclusion 6)
- apparent KD of MS2 coat protein (input ligand: FMN 200 uM): 42.6 nM
- apparent KD of MS2 coat protein (input ligand: none): 17 nM

Sequence: UCGACGUCGUCAGGAUAUAGUUUUAAUGUCAUGCUUUUGUUCGUACAUGAGGAUCACCCAUGUGGCUAGAAGGGACUAAAGAUU [JR_ExcNG2_Sub014] (Eterna round: R96, puzzle: Exclusion NG 2)
- apparent KD of MS2 coat protein (input ligand: FMN 200 uM): 22.9 nM
- apparent KD of MS2 coat protein [4]: 27 nM
- apparent KD of MS2 coat protein (input ligand: none): 18.8 nM

Sequence: AUGCCCUGAGGAUAUCUCAUCCCGCACAUGAGGAUCACCCAUGUUCUUCUCCGGGUUUCGAGAGAAGGCAGGCCUA [Armus4] (Eterna round: R97, puzzle: Exclusion 5)
- apparent KD of MS2 coat protein (input ligand: FMN 200 uM): 79.4 nM
- apparent KD of MS2 coat protein (input ligand: none): 249 nM

Sequence: UUAAUUAAUUAAUUAUAAGAUCAACAUGAGGAUCACCCAUGUGAGGAUAUCAGCUCGUGUAGAGCUGAGAAGGCACAAAUAAUU [ExNG3/16-B3] (Eterna round: R96, puzzle: Exclusion NG 3)
- apparent KD of MS2 coat protein (input ligand: FMN 200 uM): 86.5 nM
- apparent KD of MS2 coat protein [4]: 27.9 nM
- apparent KD of MS2 coat protein (input ligand: none): 51.5 nM

Sequence: AGUAAGCUAGGAUAUGCUUUGGGAAAGCAUUCCUUCGAUAAACUUGAGGAUCACCCAAGUAGAAGGAGCUAAAU [jl-ex2.4.49 ViennaUCT mod] (Eterna round: R97, puzzle: Exclusion 2)
- apparent KD of MS2 coat protein (input ligand: FMN 200 uM): 17.5 nM
- apparent KD of MS2 coat protein (input ligand: none): 15.4 nM

Sequence: GUGGAGUAAGGAUAUACAUGAGGAUCACCCAUGUAAGGGAAGGUGAUGGGAGUAGAUAGUAGAAGGUACGAGGA [JR_Exclu3_Sub067] (puzzle: Exclusion 3)
- apparent KD of MS2 coat protein [1]: 58.3 nM
- apparent KD of MS2 coat protein [2]: 97.2 nM
- apparent KD of MS2 coat protein [3]: 100 nM

Sequence: GUGAUCUAUCAUGGAAUAAACAUGAGGAUCACCCAUGUAGACAAGUUUUUUGCUCGUCUUAUAAUAAGAUAGAUCAC [Antenna 14 - Jieux - Sensor, turn-off variant 1] (Eterna round: R97, puzzle: Sensor, turn-off variant 1)
- apparent KD of MS2 coat protein (input ligand: FMN 200 uM): 15.5 nM
- apparent KD of MS2 coat protein (input ligand: none): 14.2 nM

Sequence: CCGCUACAUGAGGAUCACCCAUGUCAGGAUAUCGUACGUUCGUCGAUAGACGAUCGUACGAGAAGGGUGAGCGG [Mat - Exclusion 1 - Eli Mod - D37] (Eterna round: R97, puzzle: Exclusion 1)
- apparent KD of MS2 coat protein (input ligand: FMN 200 uM): 156 nM
- apparent KD of MS2 coat protein (input ligand: none): 209 nM

Sequence: AGUCGGUCAGGAUAUGCAUACGUAGACAUGAGGAUCACCCAUGUGACGUGGGCCUGGUGUGUAGAAGGGACGAGCA [EX5 #82] (Eterna round: R97, puzzle: Exclusion 5)
- apparent KD of MS2 coat protein (input ligand: FMN 200 uM): 32.6 nM
- apparent KD of MS2 coat protein (input ligand: none): 17.6 nM

Sequence: CAGUACUGAGGAUAUACAUGAGGAUCACCCAUGUGAGAAAUACUAGUGAGGUCGAUUAGUAGAAGGCAGUACUG [Mat - Exclusion 3 - Eli Mod - D31] (Eterna round: R97, puzzle: Exclusion 3)
- apparent KD of MS2 coat protein (input ligand: FMN 200 uM): 761 nM
- apparent KD of MS2 coat protein (input ligand: none): 35.4 nM

Sequence: UGAGUGCUGCGAGGAUAUACAUGAGGAUCACCCAUGUUUACCUGUGAGGCUUUGCCUCACAGGUUGUAGAAGGCGCAGUACUCU [JL ENG2 1.15] (Eterna round: R96, puzzle: Exclusion NG 2)
- apparent KD of MS2 coat protein (input ligand: FMN 200 uM): 10.2 nM
- apparent KD of MS2 coat protein [4]: 9.11 nM
- apparent KD of MS2 coat protein (input ligand: none): 12.4 nM

Sequence: AGAUGUUAAGAGGAUAUCAGCCAAAACCGGCAGUGAGAAGGCUUGACAUGAGGAUCACCCAUGUUUUGCGGUAA [Islalaus] (Eterna round: R97, puzzle: Exclusion 6)
- apparent KD of MS2 coat protein (input ligand: FMN 200 uM): 397 nM
- apparent KD of MS2 coat protein (input ligand: none): 38.6 nM

Sequence: CUGAGCAGACGGAGAUCCAACAUGAGGAUCACCCAUGUCUCAAAAGCUUUUUGCUCGUCUUAUUCUCCUCUGUUCUC [Ainre] (puzzle: Sensor v3, turn-off variant 1)
- apparent KD of MS2 coat protein [1]: 14.3 nM
- apparent KD of MS2 coat protein [2]: 33.3 nM
- apparent KD of MS2 coat protein [3]: 12.5 nM

Sequence: AGUACUAACACGACAGUGUUAGUACAAUAAGCUUGUGAAACAUGAGGAUCACCCAUGUCCUCAUAAGCUCGUCUUAU [salish99_TOv2_r3_031] (puzzle: Sensor v3, turn-off variant 2)
- apparent KD of MS2 coat protein [1]: 18.8 nM
- apparent KD of MS2 coat protein [2]: 867 nM
- apparent KD of MS2 coat protein [3]: 15.2 nM

Sequence: ACAUGAGGAUCACCCAUGUGACCACGAUGGCUGAUGUAGAGCUAGGAUAUGUGUGAAUAUCUAUCACAGAAGGAGCUUGACUGG [Deportation 52 - Jieux - Exclusion NG 3] (Eterna round: R96, puzzle: Exclusion NG 3)
- apparent KD of MS2 coat protein (input ligand: FMN 200 uM): 24.7 nM
- apparent KD of MS2 coat protein [4]: 18.3 nM
- apparent KD of MS2 coat protein (input ligand: none): 25.7 nM

Sequence: GCUGCGCGAGGAUAUGCGGUUUGCGCUGUGGCCCGUGGCGUACAUGAGGAUCACCCAUGUAGAAGGCGUGUGGG [Apr-15 SS2-55] (puzzle: Exclusion 2)
- apparent KD of MS2 coat protein [2]: 18.6 nM
